Experimental data from patent publication US20250381241, “METHODS AND COMPOSITIONS TO MODULATE RIOK2” (Dana-Farber Cancer Institute, Inc., published 2025).

B1: RUNX3-WT duplex (dsDNA)
DNA 1: CCGGGCGCCGCCCCCTGCGCCCTGAGGCCC
DNA 2: GGGCCTCAGGGCGCAGGGGGCGGCGCCCGG
B2: SPI1-WT duplex (dsDNA)
DNA 1: AAGGGGACTATCTCCCAGCGGCAGGCCCTT
DNA 2: AAGGGCCTGCCGCTGGGAGATAGTCCCCTT
B3: GATA1-WT duplex (dsDNA)
DNA 1: ACACACCTGTAGTCCCAGCTACTCAGGAGG
DNA 2: CCTCCTGAGTAGCTGGGACTACAGGTGTGT
B4: GATA2-WT duplex (dsDNA)
DNA 1: CTTGGGCTTTCCTCCCACCCGGGACTGGTG
DNA 2: CACCAGTCCCGGGTGGGAGGAAAGCCCAAG

Molecular target: RIOK2 (rhRIOK2, full length) (Homo sapiens, UniProt Q9BVS4 SEQ:1-552)
Test: EMSA; low-salt buffer, 4 C, protein:DNA 5:1
Settings: tags: GST; Abcam
Protocol: Recombinant human GST-tagged RIOK2 (rhRIOK2, Abcam) was incubated with duplex DNA (Table 5) at 5:1 molar ratio in a low-salt buffer for 20-30 minutes at 4° C. and 2% agarose gel was cast and cooled to 4° C. The DNA-protein mixture was supplemented with 0.22p filtered 50% glycerol solution to facilitate loading. The gel was run for 1.5 hours at 4° C., followed by incubation in ethidium bromide solution for 30 minutes and visualized using ChemiDoc Touch Imaging system (Bio-Rad). ImageJ was used to quantify band shifts.

RIOK2 (rhRIOK2, full length), sequence (Q9BVS4 whole entry): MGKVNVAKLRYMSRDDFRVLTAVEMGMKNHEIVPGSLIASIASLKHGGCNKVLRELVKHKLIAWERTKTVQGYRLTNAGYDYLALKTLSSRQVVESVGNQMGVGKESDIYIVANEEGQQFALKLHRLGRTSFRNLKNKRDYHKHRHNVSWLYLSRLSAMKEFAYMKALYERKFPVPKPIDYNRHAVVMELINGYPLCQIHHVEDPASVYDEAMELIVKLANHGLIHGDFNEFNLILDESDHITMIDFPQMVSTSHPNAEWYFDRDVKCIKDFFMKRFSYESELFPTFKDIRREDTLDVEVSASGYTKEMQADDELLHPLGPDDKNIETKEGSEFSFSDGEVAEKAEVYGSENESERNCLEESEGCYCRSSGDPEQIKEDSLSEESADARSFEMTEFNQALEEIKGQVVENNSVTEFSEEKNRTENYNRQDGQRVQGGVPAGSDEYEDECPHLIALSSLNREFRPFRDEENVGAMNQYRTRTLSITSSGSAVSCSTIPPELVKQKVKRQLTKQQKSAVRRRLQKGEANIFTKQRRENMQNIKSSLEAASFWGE

Binding result, binds:
B1
B2
B3
B4
